According to US20230110994A1, “CONJUGATES UNDERGOING INTRAMOLECULAR REARRANGEMENTS” (Ascendis Pharma A/S, priority 2020, published 2023):

Assay: Plasma pharmacokinetics of HHC^MET in Wistar rats (sandwich ELISA)
Assay type: in vivo
Conditions: n = 3
Method: This study was performed in order to investigate the plasma pharmacokinetics of HHC^MET in Wistar rats following subcutaneous and intramuscular administration of transient HHC^MET-linker hydrogel prodrug 32 or following subcutaneous or intravenous administration of free HHC^MET. Animals (n=3 per group) received either a single SC injection in the neck region or a single IM injection in the thigh musculature of a formulation of 32 (10 mg/kg HHC^MET equivalents) or a single SC injection in the neck region or IV injection in the tail vein of an HHC^MET formulation (10 mg/kg HHC^MET). At selected time points, 200 μL blood were collected in Li-Heparin tubes and processed to plasma by centrifugation at 3,000 g for 10 minutes at 4° C. HHC^MET concentrations in rat plasma were determined with an in-house developed sandwich ELISA setup. For capturing HHC^MET, a human CTLA-4 (AA Ala37-Ser160)-Fc Tag fusion protein (Supplier AcroBiosystem, Newark, Del.; USA, catalog no. CT4-H5255) was coated to the ELISA plate wells and read-out was performed via a rabbit anti-camelid VHH antibody conjugated with horseradish peroxidase (supplier Genscript, Piscataway, N.J., USA, catalog no. A01861-200).
Calibration standards of HHC^MET in blank plasma were prepared as follows: thawed Li-Heparin Wistar rat plasma was homogenized. The free HHC^MET formulation was spiked into blank plasma at concentrations between 96.0 ng/mL and 3.00 ng/mL with additional higher and lower anchor points. These solutions were used for the generation of a calibration curve. Calibration curves were analyzed via a 4-parameter […] fit and 1/Y weighted. Calibration curves were confirmed via separately prepared quality control standards at 10, 40 and 80 ng/mL.

B1: HHC^MET: custom made protein of SEQ ID NO:1, expressed from E. coli (protein)
chain: EVQLVESGGGLVQAGGSLRLSCAASGGTFSFYGMGWFRQAPGKEQEFVADIRTSAGRTYYADSVKGRFTISRDNAKNTVYLQMNSLKPEDTAVYYCAAEMSGISGWDYWGQGTQVTVSSGGGGSGGGSEVQLVESGGGLVQAGGSLRLSCAASGGTFSFYGMGWFRQAPGKEQEFVADIRTSAGRTYYADSVKGRFTISRDNAKNTVYLQMNSLKPEDTAVYYCAAEMSGISGWDYWGQGTQVTVSS
modifications: nanobody
In the case of B1, the “mean HHC^MET concentration in plasma” value (intravenous, 10 mg/kg, 0.25 h) is reported as 17400 ng/mL, the “mean HHC^MET concentration in plasma” value (intravenous, 10 mg/kg, 1 h) is reported as 3530 ng/mL and the “mean HHC^MET concentration in plasma” value (intravenous, 10 mg/kg, 4 h) is reported as 1720 ng/mL. For the same molecule, the “mean HHC^MET concentration in plasma” value (intravenous, 10 mg/kg, 24 h) was 8.27 ng/mL, the “mean HHC^MET concentration in plasma” value (intravenous, 10 mg/kg, 32 h) was “<LLOQ” and the “mean HHC^MET concentration in plasma” value (intravenous, 10 mg/kg, 48 h) was “<LLOQ”. The “mean HHC^MET concentration in plasma” value (intravenous, 10 mg/kg, 72 h) was 1.15 ng/mL, the “mean HHC^MET concentration in plasma” value (intravenous, 10 mg/kg, 96 h) was “<LLOQ” and the “mean HHC^MET concentration in plasma” value (intravenous, 10 mg/kg, 168 h) was “<LLOQ”. For the same molecule, the “mean HHC^MET concentration in plasma” value (subcutaneous, 10 mg/kg HHC^MET (equivalents), 0.25 h) was 2540 ng/mL, the “mean HHC^MET concentration in plasma” value (subcutaneous, 10 mg/kg HHC^MET (equivalents), 1 h) was 5090 ng/mL and the “mean HHC^MET concentration in plasma” value (subcutaneous, 10 mg/kg HHC^MET (equivalents), 4 h) was 2280 ng/mL. For the same molecule, the “mean HHC^MET concentration in plasma” value (subcutaneous, 10 mg/kg HHC^MET (equivalents), 24 h) was 2.60 ng/mL, the “mean HHC^MET concentration in plasma” value (subcutaneous, 10 mg/kg HHC^MET (equivalents), 32 h) was “<LLOQ” and the “mean HHC^MET concentration in plasma” value (subcutaneous, 10 mg/kg HHC^MET (equivalents), 48 h) was “<LLOQ”. The “mean HHC^MET concentration in plasma” value (subcutaneous, 10 mg/kg HHC^MET (equivalents), 72 h) was 2.07 ng/mL, the “mean HHC^MET concentration in plasma” value (subcutaneous, 10 mg/kg HHC^MET (equivalents), 96 h) was “<LLOQ” and the “mean HHC^MET concentration in plasma” value (subcutaneous, 10 mg/kg HHC^MET (equivalents), 168 h) was “<LLOQ”.
